Assay results: patent publication US11306331B2, “Processes for the production of hydroxycinnamic acids using polypeptides having tyrosine ammonia lyase activity” (CysBio ApS, priority 2014, dated 2022)

Key:
[1] = substrate: N[C@@H](Cc1ccccc1)C(=O)O; experiment: In vitro kinetics of purified His-tagged SeSam8 (tyrosine/phenylalanine ammonia lyase activity, absorbance at 315/295 nm); assay type: biochemical, Saccharothrix espanaensis; conditions: other: SeSam8, 30° C, 1.56 μM to 200 μM tyrosine or 193 μM to 25 mM phenylalanine, pH 7.5
From the text: (§1) Four of the enzymes were further purified by His-tag purification as follows. A DNA linker (5′ phosphorylated oligonucleotides CBJP559 and CBJP560, Table 5) was inserted in place of the sequence between the NdeI and BgIII site in plasmid pCDFDuet-1. This would result in the addition of the amino acids MAHHHHHHENLYFQ (SEQ ID NO: 11) to the N-terminal end of the polypeptides. The resulting plasmid was amplified with primers CBJP575 and CBJP576 (table 5) and the genes were amplified and combined using the Gibson reaction (New England Biolabs). The PCR amplification used the same reverse primers as in example 1, but the forward primers matching the His-tag site of the linker (Table 5). Plasmids carrying the genes (e.g. FjXAL, FIG. 4) were transformed into electrocompetent E. coli BL21(DE3)pLysS cells (Life Technologies) and selected on LB plates containing 50 ug/mL streptomycin.
(§2) Strains expressing His-tagged versions of the enzymes were grown in LB media overnight at 37° C. and diluted into fresh LB media with 1 mM IPTG and growth was propagated overnight (approximately 18 h) at 30° C. Cells were harvested by centrifugation at 8000 rpm for 8 minutes, and disrupted by shearing into a buffer (50 mM Tris-HCl, 10 mM imidazole, 500 mM NaCl, 10% glycerol, pH 7.5). The homogenate was clarified by centrifugation at 10000 g for 10 min at 4° C., and the supernatant was loaded onto Ni2+-NTA resin column on an Äkta Pure system connected to a F9-C fraction collector (GE). Finally the fractions containing the purified polypeptide was dialyzed overnight against a buffer containing 50 mM Tris-HCl pH 7.5, 150 mM NaCl and 10% glycerol, flash-frozen in liquid nitrogen and stored at −80° C.
(§3) Enzymatic assays were performed in 200 μL volumes in wells in a UV transparent 96-well plate, by following the increase in absorbance at 315 nm (pHCA) or 295 nm (CA). […] The enzymatic activity was calculated as U/g, where U is defined as μmol substrate converted per minute.

[2] = substrate: N[C@@H](Cc1ccc(O)cc1)C(=O)O; experiment: as above; assay type: biochemical, Saccharothrix espanaensis; conditions: other: SeSam8, 30° C, 1.56 μM to 200 μM tyrosine or 193 μM to 25 mM phenylalanine, pH 7.5
From the text: as §1, §2, §3

[3] = substrate: N[C@@H](Cc1ccccc1)C(=O)O; experiment: purified protein, by the assay type; conditions: other: RsTAL, 30° C, 1.56 μM to 200 μM tyrosine or 193 μM to 25 mM phenylalanine, pH 7.5
Experimental: (§5) Enzymatic assays were performed in 200 μL volumes in wells in a UV transparent 96-well plate, by following the increase in absorbance at 315 nm (pHCA) or 295 nm (CA). The reaction mixtures contained 2 μg of purified protein and were initiated by adding 1 mM tyrosine or 6 mM after equilibration to 30° C. The enzymatic activity was calculated as U/g, where U is defined as μmol substrate converted per minute.

[4] = substrate: N[C@@H](Cc1ccc(O)cc1)C(=O)O; experiment: purified protein, by the assay type; conditions: other: RsTAL, 30° C, 1.56 μM to 200 μM tyrosine or 193 μM to 25 mM phenylalanine, pH 7.5
Experimental: as §5

[5] = test system: E. coli BL21(DE3)pLysS cells; experiment: Titers of hydroxycinnamic acids in supernatants of E. coli cultures expressing TAL homologs; assay type: cell-based, Escherichia coli; conditions: 16 hours, 37° C., duplicate
Experimental: E. coli strains described in Example 1 were used. M9 medium with 0.2% glucose and 0.5 mM IPTG also containing either tyrosine (204 μM), L-dopa (194 μM) or 3-O-methyldopa (262 μM) was transferred as 3-mL aliquots into a 24-well deep-well plate (Enzyscreen). Aliquots were taken for HPLC before the wells were inoculated with 200 μL of overnight cultures of the strains. The plates were placed at 37° C. with shaking for 16 hours. Samples of the supernatant were withdrawn after two rounds of centrifugation. The samples were subjected to HPLC along with chemical standards as described in Example 1. p-coumaric acid, caffeic acid and ferulic acid was measured by absorbance at 333 nm. Tyrosine, L-dopa and 3-O-methyldopa were measured by fluorescence (excitation at 274 nm, emission at 303 nm).
There was no measurable product in the medium before inoculation.

[6] = substrate: N[C@@H](Cc1ccccc1)C(=O)O; experiment: In vitro kinetics of purified His-tagged HaXAL1 (tyrosine/phenylalanine ammonia lyase activity, absorbance at 315/295 nm); assay type: biochemical, Herpetosiphon aurantiacus; conditions: other: HaXAL1, 30° C, 1.56 μM to 200 μM tyrosine or 193 μM to 25 mM phenylalanine, pH 7.5
Experimental: (§4) The tyrosine ammonia lyase activity may for instance be determined in accordance to the following method: Enzymatic assays are performed in 200 μL volumes in wells in a UV transparent 96-well plate, by following the increase in absorbance at 315 nm (pHCA) using spectrophotometry or HPLC with UV detection. The reaction mixtures contain 2 μg of purified protein and are initiated by adding 1 mM tyrosine or 6 mM after equilibration to 30° C. The enzymatic activity is calculated as U/g, where U is defined as μmol substrate converted per minute. Negative controls contain no purified protein. Kinetic constants Km and vmax are determined from assays containing 1.56 μM to 200 μM tyrosine. See also Kyndt et al. (2002).
as §1, §2, §3

[7] = substrate: N[C@@H](Cc1ccc(O)cc1)C(=O)O; experiment: as above; assay type: biochemical, Herpetosiphon aurantiacus; conditions: other: HaXAL1, 30° C, 1.56 μM to 200 μM tyrosine or 193 μM to 25 mM phenylalanine, pH 7.5
Experimental: as §4, §1, §2, §3

[8] = test system: Saccharomyces cerevisiae CEN.PK102-5B; experiment: Specific production of pHCA and CA by S. cerevisiae expressing TAL enzymes; assay type: cell-based; conditions: 72 h, 30° C., +/- standard deviation
From the text: A number of the previously characterized enzymes were characterized when expressed in Saccharomyces cerevisiae. Genes encoding HaXAL1 and FjXAL were synthesized with codon optimization for S. cerevisiae available by GeneArt (Life Technologies), and were named HaXAL1 Sc and FjXALSc. Genes were amplified using the oligonucleotide (refer to specific name) shown in Table 6, and inserted by uracil-excision into the vector pCfB132 together with the PPGK1 promoter amplified by primers PPGK1_fw and PPGK1_rv (Jensen et al., 2014). The finished plasmids were transformed into Saccharomyces cerevisiae CEN.PK102-5B (MAT a ura3-52 his3Δ1 leu2-3/112 MAL2-8c SUC2) using a standard lithium acetate transformation protocol and selected for on synthetic drop-out media plates lacking uracil.
Cells were grown in SC medium without uracil, and diluted into Delft medium or Feed-In-Time (FIT) medium (m2p-labs) supplemented with leucine and histidine. After 72 h of incubation at 30° C. with shaking, samples were taken for the analysis of optical density at 600 nm and for clarification of the supernatant, which was analyzed by HPLC as described in example 1. The specific production was calculated as micromolar (μM) concentration per unit of optical density of the culture at 600 nm and is shown in Table 4.

[9] = test system: E. coli BL21(DE3)pLysS cells; experiment: Specific production of pHCA and CA by E. coli expressing TAL/PAL enzymes; assay type: cell-based, Escherichia coli; conditions: 24 h after supplementation, +/- standard deviation
Experimental: Plasmids carrying the genes were transformed into electrocompetent E. coli BL21(DE3)pLysS cells (Life Technologies) and selected on LBplates containing 50 ug/mL streptomycin. The strains were grown in M9 minimal media containing glucose as a carbon source, and expression was induced by adding 1 mM IPTG at an optical density at 600 nm of 0.6. After three hours of growth at 30° C. the cultures were supplemented with 2 mM tyrosine, phenylalanine or histidine. After further 24 hours, samples were withdrawn for determination of the optical density at 600 nm and for the isolation of the supernatant.
The concentration of pHCA and CA in the supernatant was quantified by high performance (HPLC) and compared to chemical standards. HPLC was done on a Thermo setup using a HS-F5 column and mobile phases: 5 mM ammonium formate pH 4.0 (A) and acetonitrile (B) at 1.5 mL min-1, using a gradient elution starting at 5% B. From 0.5 min after injection to 7 min, the fraction of B increased linearly from 5% to 60%, and between 9.5 min and 9.6 the fraction of B decreased back to 5%, and remaining there until 12m pHCA and CA were quantified by measuring absorbance at 333 nm and 277 nm, respectively. The production was tested without addition of precursors or the addition of either phenylalanine or tyrosine to the growth medium.
The specific production was calculated as micromolar (μM) concentration per unit of optical density of the culture at 600 nm, and standard deviations were calculated based on triplicate experiments. HaXAL1, HaXAL2 and FjXAL are the most specific enzymes and those that reach the highest yields.

B1: Saccharothrix espanaensis SeSam8 (Protein GI 433607630), His-tagged (N-terminal tag SEQ ID NO: 11) (Saccharothrix espanaensis) (protein)
chain: MTQVVERQADRLSSREYLARVVRSAGWDAGLTSCTDEEIVRMGASARTIEEYLKSDKPIYGLTQGFGPLVLFDADSELEQGGSLISHLGTGQGAPLAPEVSRLILWLRIQNMRKGYSAVSPVFWQKLADLWNKGFTPAIPRHGTVSASGDLQPLAHAALAFTGVGEAWTRDADGRWSTVPAVDALAALGAEPFDWPVREALAFVNGTGASLAVAVLNHRSALRLVRACAVLSARLATLLGANPEHYDVGHGVARGQVGQLTAAEWIRQGLPRGMVRDGSRPLQEPYSLRCAPQVLGAVLDQLDGAGDVLAREVDGCQDNPITYEGELLHGGNFHAMPVGFASDQIGLAMHMAAYLAERQLGLLVSPVTNGDLPPMLTPRAGRGAGLAGVQISATSFVSRIRQLVFPASLTTLPTNGWNQDHVPMALNGANSVFEALELGWLTVGSLAVGVAQLAAMTGHAAEGVWAELAGICPPLDADRPLGAEVRAARDLLSAHADQLLVDEADGKDFG
[1]
  Km: 2200 µM
  kcat: 0.00883 s⁻¹
  kcat/Km: 4.03 M⁻¹ s⁻¹
[2]
  Km: 4.8 µM

B2: Rhodobacter sphaeroides RsTAL (Protein GI 126464011), His-tagged (N-terminal tag SEQ ID NO: 11) (Cereibacter sphaeroides 2.4.1) (protein)
chain: MLAMSPPKPAVELDRHIDLDEAHSVASGGARIVLAPPARDRCRASEARLGAVIREARHVYGLTTGFGPLANRLVSGENVRTLQANLVHHLASGVGPVLDWTTARAMVLARLVAIAQGASGASEGTIARLIDLLNSELAPAVPMRGTVGASGDLTPLAHMVLCLQGRGDFLDRDGTRLDGAEGLRRGRLQPLDLSHRDALALVNGTSAMTGIALVNAHACRHLGNWAVALTALLAECLGGRTEAWAAALSDLRPHPGQKDAAARLRARVDGSARVVRHVIAERRLGASDIGTEPEAGQDAYSLRCAPQVLGAGFDTLAWHDRVLTIELNAVTDNPVFPPDGSVPALHGGNFMGQHVALTSDALATAVTVLAGLAERQIARLTDERLNRGLPPFLHRGPAGLNSGFMGAQVTATALLAEMRATGPASIHSISTNAANQDVVSLGTIAARLCREKIDRWAEILAILALCLAQAAELRCGSGLDGVSPAGKKLVQALREQFPPLETDRPLGQEIAALATHLLQQSPV
[3]
  Km: 2400 µM
  kcat: 0.0597 s⁻¹
  kcat/Km: 24.6 M⁻¹ s⁻¹
[4]
  Km: 5.6 µM

B3: Herpetosiphon aurantiacus HaXAL1 tyrosine ammonia lyase (Protein GI 159898407), SEQ ID NO: 2, His-tagged (N-terminal tag SEQ ID NO: 11) (Herpetosiphon … (protein)
chain: MSTTLILTGEGLGIDDVVRVARHQDRVELTTDPAILAQIEASCAYINQAVKEHQPVYGVTTGFGGMANVIISPEEAAELQNNAIWYHKTGAGKLLPFTDVRAAMLLRANSHMRGASGIRLEIIQRMVTFLNANVTPHVREFGSIGASGDLVPLISITGALLGTDQAFMVDFNGETLDCISALERLGLPRLRLQPKEGLAMMNGTSVMTGIAANCVHDARILLALALEAHALMIQGLQGTNQSFHPFIHRHKPHTGQVWAADHMLELLQGSQLSRNELDGSHDYRDGDLIQDRYSLRCLPQFLGPIIDGMAFISHHLRVEINSANDNPLIDTASAASYHGGNFLGQYIGVGMDQLRYYMGLMAKHLDVQIALLVSPQFNNGLPASLVGNIQRKVNMGLKGLQLTANSIMPILTFLGNSLADRFPTHAEQFNQNINSQGFGSANLARQTIQTLQQYIAITLMFGVQAVDLRTHKLAGHYNAAELLSPLTAKIYHAVRSIVKHPPSPERPYIWNDDEQVLEAHISALAHDIANDGSLVSAVEQTLSGLRSIILFR
[5]; M9 + 3-O-methyldopa (262 μM)
  Titer of ferulic acid: 0.6 ± 0.0 µM
[5]; M9 + L-dopa (194 μM)
  Titer of caffeic acid: 6.9 ± 1.3 µM
[5]; M9 + tyrosine (204 μM)
  Titer of p-coumaric acid: 81 ± 1.2 µM
[6]
  Km: 22000 µM
  kcat: 0.128 s⁻¹
  kcat/Km: 6.1 M⁻¹ s⁻¹
[7]
  Km: 16 µM
[8]; Delft + Tyr (10 mM)
  Specific production of CA: 0 ± 0 μM OD600-1
  Specific production of pHCA: 110 ± 15 μM OD600-1
[8]; Delft medium
  Specific production of CA: 0 ± 0 μM OD600-1
  Specific production of pHCA: 31 ± 3.2 μM OD600-1
[8]; FIT + Tyr (10 mM)
  Specific production of CA: 0 ± 0 μM OD600-1
  Specific production of pHCA: 120 ± 10 μM OD600-1
[8]; FIT medium
  Specific production of CA: 0 ± 0 μM OD600-1
  Specific production of pHCA: 140 ± 13 μM OD600-1
[9]; M9 + Phe (2 mM)
  Specific production of CA: 1.1 ± 0.2 μM OD600-1
  Specific production of pHCA: 36 ± 14 μM OD600-1
[9]; M9 + Tyr (2 mM)
  Specific production of CA: 0 ± 0 μM OD600-1
  Specific production of pHCA: 130 ± 26 μM OD600-1
